B1: Fc protein K392D/K409D/D399K (other)
chain: GSGGGDKTHTCPPCPAPELLGGPSVFLFPPKPKDTLMISRTPEVTCVVVDVSHENPEVKFNWYVDGVEVHNAKTKPREEQYNSTYRVVSVLTVLHQDWLNGKEYKCKVSNKALPAPIEKTISKAKGQPREPQVYTLPPSREEMTKNQVSLTCLVKGFYPSDIAVEWESNGQPENNYDTTPPVLKSDGSFFLYSDLTVDKSRWQQGNVFSCSVMHEALHNHYTQKSLSLSPGK
notes: Monomer chain; EU numbering is K392D/K409D/D399K; also called Fc-mix1; Fc of mutation combinations 1, 5 and 6

Key:
[1] = biological target: the molecule itself; test: co-transfection 1:1 in 293H, protein A pull-down, non-reducing SDS-PAGE densitometry; co-expressed with ScFv-Fc WT
Experimental: (§1) The expression vectors harbor 8 mutation combinations in step 3 were separately transfected with PEI into suspension adapted 293H cells (ATCC CRL-1573), the co-transfection ratio of plasmids pcDNA3.1-zeo-ScFv-Fc to pcMVβ-SP-Fc was 1:1, and after 3-4 days, cell culture supernatant was collected. Immuno precipitation was performed with protein A agarose resin, and the content of the homodimer proteins or antibodies (ScFv-Fc/ScFv-Fc and Fc/Fc) and the heterodimer protein or antibody (ScFv-Fc/Fc) was detected by SDS-PAGE under non-reducing conditions. Gel-Pro professional image analysis software (Media Cybernetics company) was used for analyzing the proportion of the homodimer proteins or antibodies (ScFv-Fc/ScFv-Fc and Fc/Fc) and the heterodimer protein or antibody (ScFv-Fc/Fc). […] In addition, when E357K/K370E/K392D/K409D/D399K (mutation combination 4) was introduced on Fc, the stability should be further investigated because of the appearance of Fc monomers (about 6%).

[2] = biological target: B1; test: co-transfection 1:1 in 293H, protein A pull-down, non-reducing SDS-PAGE densitometry
Experimental: as §1

[3] = biological target: the molecule itself; test: co-transfection 1:1 in 293H, protein A pull-down, non-reducing SDS-PAGE densitometry; co-expressed with Fc K392D/K409D/D399K
Experimental: as §1

proportion of ScFv-Fc/Fc heterodimer on SDS-PAGE [2] [%] | Binder | proportion of Fc homodimer on SDS-PAGE [1] [%] | proportion of ScFv-Fc homodimer on SDS-PAGE [3] [%]
– | Fc protein E357K/K370E (other, Monomer chain; also called Fc of mutation combination 3) GSGGGDKTHTCPPCPAPELLGGPSVFLFPPKPKDTLMISRTPEVTCVVVDVSHENPEVKFNWYVDGVEVHNAKTKPREEQYNSTYRVVSVLTVLHQDWLNGKEYKCKVSNKALPAPIEKTISKAKGQPREPQVYTLPPSREKMTKNQVSLTCLVEGFYPSDIAVEWESNGQPENNYKTTPPVLDSDGSFFLYSKLTVDKSRWQQGNVFSCSVMHEALHNHYTQKSLSLSPGK | 47.5 | –
– | Fc protein D399K/K409D (other, Monomer chain; also called Fc of mutation combination 8) GSGGGDKTHTCPPCPAPELLGGPSVFLFPPKPKDTLMISRTPEVTCVVVDVSHENPEVKFNWYVDGVEVHNAKTKPREEQYNSTYRVVSVLTVLHQDWLNGKEYKCKVSNKALPAPIEKTISKAKGQPREPQVYTLPPSREEMTKNQVSLTCLVKGFYPSDIAVEWESNGQPENNYKTTPPVLKSDGSFFLYSDLTVDKSRWQQGNVFSCSVMHEALHNHYTQKSLSLSPGK | 43.4 | –
– | B1 | 51.3 | –
– | Fc protein E357K/K370E/K392D/K409D/D399K (other, Monomer chain; also called Fc-mix13; Fc of mutation combination 4) GSGGGDKTHTCPPCPAPELLGGPSVFLFPPKPKDTLMISRTPEVTCVVVDVSHENPEVKFNWYVDGVEVHNAKTKPREEQYNSTYRVVSVLTVLHQDWLNGKEYKCKVSNKALPAPIEKTISKAKGQPREPQVYTLPPSREKMTKNQVSLTCLVEGFYPSDIAVEWESNGQPENNYDTTPPVLKSDGSFFLYSDLTVDKSRWQQGNVFSCSVMHEALHNHYTQKSLSLSPGK | 28.7 | –
– | Fc protein K392D/D399K (other, Monomer chain; also called Fc of mutation combination 7) GSGGGDKTHTCPPCPAPELLGGPSVFLFPPKPKDTLMISRTPEVTCVVVDVSHENPEVKFNWYVDGVEVHNAKTKPREEQYNSTYRVVSVLTVLHQDWLNGKEYKCKVSNKALPAPIEKTISKAKGQPREPQVYTLPPSREEMTKNQVSLTCLVKGFYPSDIAVEWESNGQPENNYDTTPPVLKSDGSFFLYSKLTVDKSRWQQGNVFSCSVMHEALHNHYTQKSLSLSPGK | 44.7 | –
– | Fc protein E356K/K439E (other, Monomer chain; also called Fc of mutation combination 2) GSGGGDKTHTCPPCPAPELLGGPSVFLFPPKPKDTLMISRTPEVTCVVVDVSHENPEVKFNWYVDGVEVHNAKTKPREEQYNSTYRVVSVLTVLHQDWLNGKEYKCKVSNKALPAPIEKTISKAKGQPREPQVYTLPPSRKEMTKNQVSLTCLVKGFYPSDIAVEWESNGQPENNYKTTPPVLDSDGSFFLYSKLTVDKSRWQQGNVFSCSVMHEALHNHYTQESLSLSPGK | 41.1 | –
8.4 | ScFv-Fc protein E356K/K439E (Fc fusion, Monomer chain; also called scFv-Fcmix1; ScFv-Fc of mutation combination 6) EVQLLESGGGVVQPGRSLRLSCIASGFTFSSYPMTWVRQAPGKGLEWVASISYDGSYKYKADSMKGRLTISRDNSKNTLYLEMNSLTAEDTAVYYCARTAFFNAYDFWGQGTLVTVSSASTKGPSVGGGGSGGGGSEIVMTQSPATLSVSPGERATLSCRASQSVRSNLAWYQQKPGQAPRLLIYAASTRATGIPARFSGSGSGTEFTLTISSLQSEDFAVYYCQQYNEWFRTSGQGTKVEIKRDKTHTCPPCPAPELLGGPSVFLFPPKPKDTLMISRTPEVTCVVVDVSHENPEVKFNWYVDGVEVHNAKTKPREEQYNSTYRVVSVLTVLHQDWLNGKEYKCKVSNKALPAPIEKTISKAKGQPREPQVYTLPPSRKEMTKNQVSLTCLVKGFYPSDIAVEWESNGQPENNYKTTPPVLDSDGSFFLYSKLTVDKSRWQQGNVFSCSVMHEALHNHYTQESLSLSPGK | – | 31.2
5.9 | ScFv-Fc protein E357K/K370E (Fc fusion, Monomer chain; also called ScFv-Fc of mutation combination 5) EVQLLESGGGVVQPGRSLRLSCIASGFTFSSYPMTWVRQAPGKGLEWVASISYDGSYKYKADSMKGRLTISRDNSKNTLYLEMNSLTAEDTAVYYCARTAFFNAYDFWGQGTLVTVSSASTKGPSVGGGGSGGGGSEIVMTQSPATLSVSPGERATLSCRASQSVRSNLAWYQQKPGQAPRLLIYAASTRATGIPARFSGSGSGTEFTLTISSLQSEDFAVYYCQQYNEWFRTSGQGTKVEIKRDKTHTCPPCPAPELLGGPSVFLFPPKPKDTLMISRTPEVTCVVVDVSHENPEVKFNWYVDGVEVHNAKTKPREEQYNSTYRVVSVLTVLHQDWLNGKEYKCKVSNKALPAPIEKTISKAKGQPREPQVYTLPPSREKMTKNQVSLTCLVEGFYPSDIAVEWESNGQPENNYKTTPPVLDSDGSFFLYSKLTVDKSRWQQGNVFSCSVMHEALHNHYTQKSLSLSPGK | – | 41.5

— patent US20150274807A1 (SUZHOU ALPHAMAB, published 2015)
